From paper PMC9998874, “Deacetylation induced nuclear condensation of HP1γ promotes multiple myeloma drug resistance” (Nature Communications, 2023) come the findings set out here.

What all share (details): both partners purified
One assay deals with T1, GST-MDC1-mC-IDR2 (UniProt Q14676 354-539).
T1 construct: MDC1 intrinsically disordered region 2 (IDR2), residues 354-539; In the droplet and turbidity assays the protein is called mCherry-MDC1-IDR2; also called GST-tagged-mCherry-MDC1-IDR2; MDC1-IDR2; source: purified
T1 sequence (looked up): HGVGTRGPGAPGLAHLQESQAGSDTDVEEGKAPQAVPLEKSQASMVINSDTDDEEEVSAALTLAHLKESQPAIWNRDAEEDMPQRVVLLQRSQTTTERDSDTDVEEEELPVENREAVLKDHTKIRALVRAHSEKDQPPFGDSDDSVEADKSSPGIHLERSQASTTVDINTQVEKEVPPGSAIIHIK
In words: pull-down; GST pull-down in vitro: GST-tagged mCherry-MDC1-IDR1 or -IDR2 held, purified HP1γ-GFP.

A further assay addresses T2, GST-MDC1-mC-IDR1 (UniProt Q14676 143-339).
T2 construct: MDC1 intrinsically disordered region 1 (IDR1), residues 143-339; In the droplet and turbidity assays the protein is called mCherry-MDC1-IDR1; also called GST-tagged-mCherry-MDC1-IDR1; MDC1-IDR1; source: purified
T2 sequence (looked up): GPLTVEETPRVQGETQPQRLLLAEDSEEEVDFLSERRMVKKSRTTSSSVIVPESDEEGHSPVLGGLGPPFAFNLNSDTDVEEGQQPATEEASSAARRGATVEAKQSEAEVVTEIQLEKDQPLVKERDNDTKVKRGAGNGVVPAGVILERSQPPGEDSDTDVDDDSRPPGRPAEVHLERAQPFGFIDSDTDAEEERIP
Described as above.

For the next assay, the target named is T3, purified HDAC1-flag (UniProt Q13547 1-482).
T3 construct: histone deacetylase 1 with a flag tag; also called HDAC1-flag fusion protein; flag-HDAC1; source: HEK293T, expressed, purified
T3 sequence (Q13547 whole entry, the tested form may be a part): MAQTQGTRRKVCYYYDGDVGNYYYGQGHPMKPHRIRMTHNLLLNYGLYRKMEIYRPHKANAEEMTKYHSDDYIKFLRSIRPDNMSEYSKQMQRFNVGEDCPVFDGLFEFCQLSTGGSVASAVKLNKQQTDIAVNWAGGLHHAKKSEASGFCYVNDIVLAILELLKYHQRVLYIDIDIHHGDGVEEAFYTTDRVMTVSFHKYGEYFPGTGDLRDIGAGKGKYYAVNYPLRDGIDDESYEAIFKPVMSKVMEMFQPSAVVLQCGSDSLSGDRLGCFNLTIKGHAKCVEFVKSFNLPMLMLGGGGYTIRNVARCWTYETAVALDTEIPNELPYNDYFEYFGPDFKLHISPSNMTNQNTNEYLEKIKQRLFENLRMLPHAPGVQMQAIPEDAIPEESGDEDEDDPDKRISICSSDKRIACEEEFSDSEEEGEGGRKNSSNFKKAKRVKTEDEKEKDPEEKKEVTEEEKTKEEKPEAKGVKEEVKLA
The assay can be described thus: pull-down; GST pull-down in vitro: GST-tagged HP1γ held, purified HDAC1-flag as input.

B1: purified HP1γ-GFP (natural protein)
chain: not shown
notes: HP1γ (CBX3) fused to GFP; the HP1γ-GFP of the pull-down is probably the full-length one (surmised); also called GFP-HP1γ; source: E. coli BL21, purified (glutathione agarose, released by HRV 3C protease)
For the molecule B1, the binding result with GST-MDC1-mC-IDR2 and in the assay with GST-MDC1-mC-IDR1 was “binds” throughout.

B2: GST-fusion HP1γ protein (natural protein)
chain: not shown
notes: HP1γ (CBX3) fused to GST; Probably made in E. coli BL21 as the other GST fusions of the methods (surmised); also called GST-HP1γ; GST-tagged-HP1γ; source: purified GST-fusion protein ('in vitro expression')
As to B2, the binding result with purified HDAC1-flag is recorded as “binds”.
